Laboratory results published in PMC9665845.

Biological target: human Kap-β2/Transportin-1 (TNPO1), GST tag removed (human) (UniProt Q92973)
Sequence of UniProt Q92973 (Q92973 whole entry): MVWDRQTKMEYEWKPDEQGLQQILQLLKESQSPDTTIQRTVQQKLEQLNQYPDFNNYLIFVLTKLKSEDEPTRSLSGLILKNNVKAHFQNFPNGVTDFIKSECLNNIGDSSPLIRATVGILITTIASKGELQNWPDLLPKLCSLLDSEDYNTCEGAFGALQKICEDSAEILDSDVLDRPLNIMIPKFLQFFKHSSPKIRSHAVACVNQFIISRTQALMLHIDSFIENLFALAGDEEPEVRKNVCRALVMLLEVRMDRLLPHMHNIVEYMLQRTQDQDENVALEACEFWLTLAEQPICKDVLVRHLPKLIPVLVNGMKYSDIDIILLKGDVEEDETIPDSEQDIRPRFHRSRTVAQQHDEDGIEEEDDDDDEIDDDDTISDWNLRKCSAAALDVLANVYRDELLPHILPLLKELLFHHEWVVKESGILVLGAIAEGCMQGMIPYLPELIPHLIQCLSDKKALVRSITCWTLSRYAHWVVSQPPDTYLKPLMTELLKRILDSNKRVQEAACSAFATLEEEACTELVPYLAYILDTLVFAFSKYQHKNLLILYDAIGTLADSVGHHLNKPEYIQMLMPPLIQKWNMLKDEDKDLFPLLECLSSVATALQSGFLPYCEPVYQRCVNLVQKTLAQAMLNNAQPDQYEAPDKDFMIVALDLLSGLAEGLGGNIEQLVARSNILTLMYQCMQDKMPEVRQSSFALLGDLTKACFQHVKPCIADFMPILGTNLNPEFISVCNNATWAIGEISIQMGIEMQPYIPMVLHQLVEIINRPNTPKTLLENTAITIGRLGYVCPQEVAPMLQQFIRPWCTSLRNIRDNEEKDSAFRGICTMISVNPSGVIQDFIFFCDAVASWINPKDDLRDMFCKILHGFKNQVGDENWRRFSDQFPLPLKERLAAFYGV

Row | percent reduction of TCF/LEF luciferase activity in 3T3 mouse fibroblast reporter cells activated by human β-catenin-GFP | percent reduction of TCF/LEF luciferase activity in 3T3 mouse fibroblast reporter cells activated by human β-catenin-GFP; blocks TNPO1 with β-catenin | Binder
1 | 24% | – | GGSYNDFGNYNNQSSNAAAAKGGNFGGAFEAAANPTKR [M9M-A peptide]
2 | – | 45% | GGSYNDFGNYNNQSSNFGPMKGGNFGGRFEPYANPTKR [M9M peptide]
